The record followed here is FireProtDB (doi:10.1093/protein/12.7.581).

For the series the following is noted: Bos taurus; pH 7.4; Thermal; CD; Tris-HCl 20 mM; CaCl2 1 mM; reversible: yes(>95%); whole UniProt chain shown.

Values joined by “and” are separate entries in the source; they are usually repeats but may differ in a detail not shown here. Identical values can stand only once.

B1: Alpha-lactalbumin wild type, P00711 (protein)
chain: MMSFVSLLLVGILFHATQAEQLTKCEVFRELKDLKGYGGVSLPEWVCTTFHTSGYDTQAIVQNNDSTEYGLFQINNKIWCKDDQNPHSSNICNISCDKFLDDDLTDDIMCVKKILDKVGINYWLAHKALCSEKLDQWLCEKL
Regarding B1, the “unfolding enthalpy (van 't Hoff)” value is 64.5 kcal/mol and 73.8 kcal/mol and 73.4 kcal/mol.
